Experimental data reported in article PMC10901774, “Mirror-image ligand discovery enabled by single-shot fast-flow synthesis of D-proteins” (Nature Communications, 2024).

Settings: pH 7.4
Experimental: For protein targets with no known binding partners and no available activity assays (ERG and IRAK2), we recorded circular dichroism (CD) spectra and compared them to recombinantly derived material.
ERG and IRAK2 Circular Dichroism
Before analysis, all proteins were exchanged into CD buffer (10 mM KP i, 5% glycerol v/v, pH 7.4).
Fast protein liquid chromatography (FPLC) purification was performed using GE Life Sciences
columns on an ÄKTA Pure FPLC system. The ÄKTA Pure, FPLC columns, and all buffers were
stored and subsequently used in a cold room maintained at 4 °C. HiTrap™ Desalting 5 mL: Before
desalting, the column was equilibrated with 20 mL of the CD buffer at 2 mL/min or until the
conductance reading from the ÄKTA Pure stabilizes, whichever is the greater volume. Up to 1.5
mL of sample was loaded into the column using a syringe fitted with a compatible male-end screw
tip, and then the loaded column was attached to the ÄKTA Pure. An isocratic flow of buffer (2 CV) […]
protein solution was determined with Method 1.6.1. […]
mg/mL with additions of CD buffer. All CD spectra were recorded on an AVIV Model 420 Circular […]
Before all readings, cuvettes were cleaned with Hellmanex™ 3 concentrate according to
manufacturer directions. Far circular dichroism spectra were recorded as the average of three […]
with 2 nm bandwidth and 8 second averaging time. Spectra were recorded between 0 and 110 […]

B1: Recombinant ERG: ERG (115-208) recombinantly expressed in E. coli (protein, UniProt P11308 115-208, looked up, fragment)
chain: PPNMTTNERRVIVPADPTLWSTDHVRQWLEWAVKEYGLPDVNILLFQNIDGKELCKMTKDDFQRLTPSYNADILLSHLHYLRETPLPHLTSDDV
  TM (melting temperature), ERG: 71.7±0.8 ºC
